Measured values published in FireProtDB (doi:10.1093/protein/gzi067).

B1: Cytochrome b5, P00171 (parent)
chain: MAEESSKAVKYYTLEEIQKHNNSKSTWLILHYKVYDLTKFLEEHPGGEEVLREQAGGDATENFEDVGHSTDARELSKTFIIGELHPDDRSKITKPSESIITTIDSNPSWWTNWLIPAISALFVALIYHLYTSEN

Variants of: B1
Conditions: Bos taurus, pH 7, 25 °C, CD, MOPS 30 mM, reversible: yes (partial), structure 1CYO, whole UniProt chain shown

S76L L37I
ddG of mutation (higher = less stable) (GdnHCl): -0.5 kcal/mol | denaturant midpoint (higher = more stable) (GdnHCl): 1.9 M | unfolding free energy (GdnHCl): 3.5 kcal/mol | denaturant midpoint (higher = more stable) (GdnSCN): 1.8 M

S76L
ddG of mutation (higher = less stable) (GdnHCl): -0.8 kcal/mol | denaturant midpoint (higher = more stable) (GdnHCl): 2.3 M | unfolding free energy (GdnHCl): 3.8 kcal/mol | denaturant midpoint (higher = more stable) (GdnSCN): 1.59 M
